Where a chain is given by its changes, count along the chain named.

What is called Kd is the constant that tells how readily two partners part at equilibrium.

Series [1] has as its target T1, Hel308 (ssHel308) wild type (Sulfolobus solfataricus PBL2025, UniProt D0KN27 8-715).
T1 sequence: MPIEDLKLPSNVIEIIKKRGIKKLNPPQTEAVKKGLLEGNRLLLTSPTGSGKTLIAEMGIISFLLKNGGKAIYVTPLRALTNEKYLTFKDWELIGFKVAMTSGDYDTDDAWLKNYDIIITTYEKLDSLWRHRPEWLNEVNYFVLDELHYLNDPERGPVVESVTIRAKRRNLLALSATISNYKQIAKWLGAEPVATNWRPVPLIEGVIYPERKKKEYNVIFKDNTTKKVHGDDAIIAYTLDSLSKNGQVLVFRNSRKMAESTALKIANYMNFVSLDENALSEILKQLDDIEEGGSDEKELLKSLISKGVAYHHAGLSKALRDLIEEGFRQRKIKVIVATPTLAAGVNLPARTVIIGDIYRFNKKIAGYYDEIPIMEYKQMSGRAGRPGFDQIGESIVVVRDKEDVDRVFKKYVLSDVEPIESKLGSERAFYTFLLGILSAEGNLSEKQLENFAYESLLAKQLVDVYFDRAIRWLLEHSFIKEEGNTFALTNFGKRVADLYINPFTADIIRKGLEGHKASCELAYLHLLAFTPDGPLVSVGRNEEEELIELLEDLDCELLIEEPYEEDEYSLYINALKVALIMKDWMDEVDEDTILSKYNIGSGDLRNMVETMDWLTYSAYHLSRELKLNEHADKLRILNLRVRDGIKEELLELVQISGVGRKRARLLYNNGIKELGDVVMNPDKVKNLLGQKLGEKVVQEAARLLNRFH
Put plainly: fluorescence anisotropy. Background: In fluorescence polarisation assays a small probe gives low polarisation when free and higher when bound to something large.

Series [2] deals with T2, Hel308 R662A (Sulfolobus solfataricus PBL2025, UniProt D0KN27 8-715, R669A).
T2 sequence: T1 sequence with R662A
Put plainly: fluorescence anisotropy.

Series [3] concerns the target T3, Hel308 K52A (Sulfolobus solfataricus PBL2025, UniProt D0KN27 8-715, K59A).
T3 sequence: T1 sequence with K52A
Put plainly: fluorescence anisotropy.

The target of series [4] is T4, Hel308 R255A (Sulfolobus solfataricus PBL2025, UniProt D0KN27 8-715, R262A).
T4 sequence: T1 sequence with R255A
As to the kind of experiment: fluorescence anisotropy.

Series [5] deals with T1, Hel308 (ssHel308) wild type. Put plainly: competition.

B1: 15T/15A duplex, 5'-fluorescein on 15T (dsDNA)
DNA 1: TTTTTTTTTTTTTTT
DNA 2: AAAAAAAAAAAAAAA
B1 yielded a Kd in series [1] of 5300 nM. That is a single-digit micromolar value.

B2: 15T ssDNA, 5'-fluorescein (ssDNA)
DNA: TTTTTTTTTTTTTTT
On to B2, for which the Kd in series [1] is 140 nM. The binding result in series [2] and in series [3] was “binds” throughout. For the same molecule, the binding signal in series [4] is 25 fold increase in Kd vs wild type.

B3: 15T ssDNA, unlabelled competitor (ssDNA)
DNA: TTTTTTTTTTTTTTT
In turn, B3 gave a Kd in series [5] of 130 nM.

Source of the values: article PMC3434800.
